Assay results reported in the RNAGym collection of RNA variant scans (doi:10.1073/pnas.2313332121).

B1: TPR t1 (parent)
chain: GACCAAUCUGCCCUCAGAGCUCGAGAACAUCUUCGGAUGCAGAGGAGGCAGGCUUCGGUGGCGCGAUAGCGCCAACGUCCUCAACCUCCAAUGCAUCCCACCACAUGAUGAUGCCUGAAGAGCCUUGGUUUUUUG

Variants of: B1
Experiment: polymerase ribozyme fitness, log enrichment relative to wild type (log ratio); higher = more active; in vitro selection for triplet polymerase activity
Method in brief: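 Frozen incubation at −7 °C formed the core of a single, triplicate in vitro selection round applied to PCR-built, transcribed mutant libraries of each subunit of a heterodimeric triplet polymerase ribozyme. Extended constructs were gel-excised, captured with streptavidin beads and amplified by RT-PCR, and input and output libraries were Illumina-sequenced with a filter of ≥10 input reads and ≥1 read per output. Fitness is the logarithm of genotype enrichment relative to wild-type enrichment, with inverse-variance-weighted replicate averaging, and the logarithm is base 2.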

Variant	polymerase ribozyme fitness (log ratio)
GACCAAUCAGCCGUCAGAGCUCGAGAACAUCUUCGGGUGCAGAGGAGGCAGGCUUCGGUGGCGCGAUAGCGCCAACGUCCUGAACCUCCAAUGCAUCCCACCACAUGAUGAUGCCCGAAGAGCCAUGGUUUUUUG [U9A C13G A37G C82G U116C U125A]	-4.1
GACCAAUCAGCCCUCAGAGCUUGAGAACAUCUUCGGAUGCAGAGGAGGAAGGCUUCGGUGGCGCGAUAGCGCCAACGUCCUCAACAUCCAAUGCAUCCCACCACAUGAUGAUGCCUGAAGAGCCUUGGUUUUUUG [U9A C22U C49A C86A]	-5.1
GACCAAUCAGCCCUCAGAGCUCGAGAACAUCUUCGGAUGCAGAGGAGGCCGGCUUCGGUGGCGCGAUAGCGCCAACGUCCUCAACCUCCAAUGCAUCCCACCACAUGAUGAUGCCUGAAGAGCCUUGGUUUUUUG [U9A A50C]	0.19
GACCAAUUUGCCCUCAGAGCUCGAGAACAUCUUCGGAUGCAGAGGAGGCAGGCUUCGGUGGCGCGAUAGCGCCAACGUCCUCAACCCCCAAUGCAUCCCACUACAUGAUGAAGCCUGAAGAACCUUGGUUUUUUG [C8U U87C C102U U112A G122A]	-0.31
GACCAAUCAGACCUCAGAGCUCGAGAACAUCUUCGGAUGCAUAGGAGGCAGGCUUCGGUGGCGUGAUAGCGCCAACGUCCUCAACCUCCAAUGCAUCCCACCACAUGAUGAUGCCUGAAGAGCCUUGGUUUUUUG [U9A C11A G42U C64U]	-1.3
GACCAAUCAGCCCUCUGAGCUCGAGAACAUCUUCGGAUGCAGAGGAGGCAGGCUUCGGUGGCCCGAUAGCGCCAACGUCCUCAACCUCCAAUGCAUCCCACCACAUGAUGAUGCCUGAAGAGCCUUGGUUUAUUG [U9A A16U G63C U132A]	-0.608
GACCAAUCAGCCCUCAGAGCUAGAGAACAUCUUCGGAUGCAGAGGAGGCAGGCUUCGGUGGCGCGAUAGCGCCAACGUCCUCAACCUCCAAUGCAUCCCACCACAUGAUGAUGCCUGAAGAGCCUUGGUUUUUUG [U9A C22A]	-4.76
GACCAAUCAGCCCUCAGAGCUCGAGAACAUCUUCGGAUGCAGAGGAGGCAGGCUUCGGUGGCGUGGUAGCGCCAACGUCCUCAACCUCCAAUGCAUCCCACCACAUGAUGAUGCCUGAAGAGCCUUGGUUUUUUG [U9A C64U A66G]	-3.02
GACCAAUCAGCCCUCUGAGCUCGAGAACAUCUUCGGAUGCAGAGGAGGCAGGCUUCGGUGGCGUGAUAGCGCUAACGUCCUCAACCUCCAAUGCAUCCCACCACAUGAUGAUGCCUGAAGAGCCUUGGUUUUUUG [U9A A16U C64U C73U]	0.678
GACCAAUUUGCCCUCAGAGCUCGAGAACAUCUUCGGAUGCAGAGGAGGCAGGCUUCGGUGGCGCGAUAGCGCCAACGCCCUCAACCUCCAAGGCAUCCCACCACAUGAUGAUGCAUGAUGAGCCUUGGUUUUUUG [C8U U78C U92G C115A A119U]	-0.985
GACCAAUUUGCCCUCAGAGCUCGAGAACAUCUUCGGAUGCAGAGGAGGCAGGCUUCGGUGGCGCGAUAGCGCCAACGUCCUCAACCUCCAAAACAUCCCACCACAUGAUGAUGCCUGAAGAGCCUUGGUUUUUUG [C8U U92A G93A]	-4.46
GACCAAUCAGCUCUCAGAGCUCGAGACCAUCUUCGGAUGCAGAGGAGGCAGGUUUCGGUGGCACGAUAGCGCCAACGUCCUCCACCUCCAAUGCAUCCCACCACAUGAUGAUGCCUGAAGAGCCUUGGUUUUUUG [U9A C12U A27C C53U G63A A83C]	-4.89
GACCAAUCAGCCCUCAGAGCUCGGGAACAUCUUCGGAUGCAAAGGAGGCAGCCUUCGGUGGCGCGAUAGCGACAACGUCCUCAACCUCCAAUGCAUCCCACCACAUGAUGAUGCCUGAAGAGCCUUGGUUUUUUG [U9A A24G G42A G52C C72A]	-3.17
GACCAAUCAGGCCUCAGAGCUCGAGAACAUCUUCGGAUGCAGAGGAGGCAGGCUUCGGUGGCGCGAUAGCGCCAACGUCCUCAACCUCCAAUUCAUCCCGCCACAUGAUGAUGCCUGAAGAGCCUUGGUUUUUUG [U9A C11G G93U A100G]	-5.7
GACCAAUCAGCCCUCAGAGCUCGAGAACAUGUUCGGAUGCAGAGGAGGCAGGCUUCGGUGGCGCGAUAGCGCGAACGUCCUCAAACUCCAAUGCAUCCCACCACAUGACGAUGCCUGAAGAGCCUUGGUUUUUUG [U9A C31G C73G C85A U109C]	-5.57
GACCAAUCAGCCCUCUGAGCUCGAGAACAUCUUCGGAUGCAGAGGAGGCAGGCUUCGGUGGCGCGAUAGCGCCAACGUCCUCAACCUCUAAUGCAUCCCACCACAUGAUGAUGCCUGAAGAGCCUUGGUUUUUUG [U9A A16U C89U]	-0.38
GACCAAUCAGCCCUCAGAGCUCGAGAACAUCUUCGGAUGCAGAGGAGGCAGGCUUCGGUGGCGCGAUAGCGCCAACGUCCUCAUCCUCCAAAGCAUCCCACCACAUGAUGAUGCCGGAAGAGCCUUGGUUUCUUG [U9A A84U U92A U116G U132C]	-4.07
GACCAAUCAGCCCUCAGAGCUCGAGAACAUCUUCGGCUGCAGAGGAGGCAGGCUUCGGUGGCACGAUAGCGCCAACGUCCUCAACCUCCAAUGCAUCCCACCACAUGAUGAUGCCUGAAGAGCCUUGGUUUUUUG [U9A A37C G63A]	-0.704
GACCAAUCAGCCCUCAGAGCUCGAGAACAUCUUCGGAUGCAGAGGAGGCAGGCUUAGGUGGCGCGAUAGCGCCAACUUCCUCAACCUCCAAUGCAUCCCACCACAUGAUGAUGCCUUAAGAGCCUUGGUUUUUUG [U9A C56A G77U G117U]	0.546
GACCAAUCAGUCCUCAGAGCUCGAGAACAUCUUCGGAUGCAGAGGAGGCAGACUUCGGUGGCGCGAUAGCGCCAACGUCCUCAACCUCCAAUGCAUCCCACCACAUGAUGAUGCCUGAAGAGCCUUGGUUUUUUG [U9A C11U G52A]	-0.401
GACCAAUCAGCCCUUAGAGCUCGAGAACAUCUUCGGAUGCUGAGGAGGCAGGCUUCGGUUGCGCGAUAGCGCCAACGUCCUCAACCUCCAACGCAUCCCACCACAUGAUGAUGCCUGAAGAGACUUGGUUUUUUG [U9A C15U A41U G60U U92C C123A]	-0.568

Variant	polymerase ribozyme fitness (log ratio)
GACCAAUCAGCCCUCAGAGCUCGAGAACAUUUUCGGAUGCAGAGGAGGCAGGCUUCGGUGGCGCGAUAGCGCCAACGUCCUCAACCUCCAAUGCAUCCCACCACAUGAUGCUGCCUGAAGAGCCUUGGUUUUUUU [U9A C31U A111C G135U]	-4.56
GACCAAUCAGACCUCAGAGCUCGAGAACAUCUUCGGAUGCAGAGGAGGCAGGCUUAGGUGGCGCGAUAGCGCCAACGUCCUCAACCUCCAAUGCGUCCCACCACAAGAUGAUGCCUGAAGAGUCUUGGUUUUUUG [U9A C11A C56A A95G U106A C123U]	1.46
GACCAAUCAGCCCUAAGAGCUCGAGAACAUCUUCGGGUGCAGAGGAGGCAGGCUUUGGUGGCGCAAUAGCGCCAACGUGCUCAACGUCCAAUGCAUCCCACCACAUGAUGAUGCAUGAAGAGCCUUGGUUUUUUG [U9A C15A A37G C56U G65A C79G C86G C115A]	-7.1
GACCAAUCAGCCCUCAGAGUUCGAGAACAUCUUCGGAUGCAGUGGAGGCCGGCUUCGGUGGCGCGAUAGCGCCAACGUCCUCAACCACCAAUGCAUCCCACCACAUGAUGAUGCCUGAAGAGCCUUGGUUUUUUG [U9A C20U A43U A50C U87A]	-1.81
GACCAAUCAGCCCUCAGAGCUCGAGAACAUCUUCGGAUGCAGAGGAGGCAGGCUUCGGUGGCGCGAUAGCGCCAACGUCCUCAACCUCCAAUGCAUCCCACCACAUGUUGAUGCCUGAAGAGGCUUGGUUUUUUG [U9A A108U C123G]	-4.11
GACCAAUCAGCCAUCAGAGCUCGAGAACAUCUUCGGAUGCAGAGGAGGCAUGCUUCGGUGGCGCGAUAGCGCCAACGUCCUCAACCUCCAAUGGAUCCCACCACAUGAUGAUGCCUGAAGAGCCUUGGUUUUUUG [U9A C13A G51U C94G]	-4.04
GACCAAUUUGCCCUCAGAGCUCGAGAACAUCUUCGGAUGCAGAGGAGGCAGGCUUCGGUGGCGCGAUAGCGCCAACGUCCUCAACCUCCAACGCAUCCCACCACAUGAUGAUGCCUGAAGAGCCUUGGUUUUUUG [C8U U92C]	-0.788
GACCAAUCAGCCCUCAGAGCUCGAGAACAUCUUCGGAUGCAGAGGAGGCAGGCUUAGGUGGCGCGUUAGCGCCAACGUCCUCAACCUCCAAUGCAUCCCACCACAUGAUGAUGCCUGAAGAGCCUUGGUUUUUUG [U9A C56A A66U]	-0.548
GACCAAUCAGCCCUCAGAGCUCGAGAACAUUUUCGGAUGCAGAUGAGGCAGUCUUCGGUGGCGCGAUAGCGCCAACGUCCUCAACCUCCAAUGCAUCCCACCACAUGAUGUUGCCUGAAGAGCCUUGGUUUUUUG [U9A C31U G44U G52U A111U]	-5.37
GACCAAUCAGCCAUCAGAGCUCGAGAACAUCUUCGGAUGCACUGGAGGCAGGCUUCGGUGGCGCGAUAGCGCCAACGUCCUCAACCUCCAAUGCAUCCCUCCACAUGAUGAUGCCUGAAGAGCCUUGGUUUUUUG [U9A C13A G42C A43U A100U]	-3.76
GACCAAUCAGCCCUCAGAGCUGGAGAACAUCUUCGGAUGCAGAGGAGGCAAGCUUGGGUGGCGCGAUAGCGCCAACGUCCUCAACCUCCAAUGCAUCCCACCACAUGAUGAUGCCUGAAGAGACUUGGUUUUUUG [U9A C22G G51A C56G C123A]	-3.28
GACCAAUCAGCCCUCAGAGCUCGAGAACAUCUUCGGAUGUAGAGGUGGCAGGCUUUGGUGGCGCGAUAGCGCCAACGUCCUCAACCUCCAAUGCAUCCCACCACAUGAUGAUGCGUGAAGAGCCUUGGUUGUUUG [U9A C40U A46U C56U C115G U131G]	-1.77
GACCAAUCAGCCCUCAGAGCUCGAGGACAUCUUCGGAUGCAGAGGAAGUAGGCUUCGGUGGCGCGAUAGCGCCAACGUCCUGAACCUCCAAUGCAUCCCACCACAUUAUGAUGCCUGAAGAGCCUUGGUUUUUUG [U9A A26G G47A C49U C82G G107U]	-6.22
GACCAAUCAGCCUUCAGAUCUCGAGAACAUCUUCGGAUGCAGAGGAGGCAGGCUUCGGUGGCGCGAUAGCGCCAACGACCUCAACCUCCAGUGCAUCCCACCACAUGAUGAUGCCUGAAGAGCCUUGGUUUUUUG [U9A C13U G19U U78A A91G]	-3.32
GACCAAUCAGCCCUCAGAGCUCGAGAACAUCUUCGGAUGCAGCGGAGGCAGGCUUCGGUGGCGCGAUAGCGCCAACGUCCUGAACCUCCAAUGCAUCCCACCACAUGGUGAUGCCUGAAGAGGCUUGGUUAUUUG [U9A A43C C82G A108G C123G U131A]	-5.6
GACCAAUCAGCCCUAAGAGCUCGAGAACAUCUUCGGAUUCAGAGGAGGAAGGCUUUGGUGGCGCGAUAGCGCCAACGUCCUCAACCUCCAAUGCAUCCCACCACAUGAUGAUGCCUGAAGUGCCUUGGUUUUUUG [U9A C15A G39U C49A C56U A121U]	0.6
GACCAAUCAGCCCUCAGAGCUCGAGAACAUCUUCGGAUGCAGAGGAGGAAGGCUUUGGUGGCGCGAUAGCGCAAACGUCCUCAACCUCCAAUGCAUCCCACCACAUGAUGAUGCCUGAAGAGCCUUGGUUUUUUG [U9A C49A C56U C73A]	-0.459
GACCAAUUUGCCCUCAGAGCUCGAGAACAUCUUCGGAUGCAGAGGAGGCAGGCUUCGGUGGCGCGAUAGCGCCAACGUCCUCAACCACCAAUGCAUCCCACCACAUGAUGACGCCUUAAGAGCCUUGGUCUUUUG [C8U U87A U112C G117U U130C]	-0.73
GACCAAUCAGCCCUCAGAGCUCGAGGACAUCUUCGGAUGCAGAGGAGGCUGGCUUCGGUGGCGCGAUAGCGCCAACGUCCUCAACCUCCAAUGCAUCCCACCACAUGAUGAUGCCUGAAGAGCCUUGGUUUUUUG [U9A A26G A50U]	-1.68
GACCAAUCAGCCCUCAGAGUUCGAGAACAUCUUCGGAUGCAGAGGAGGCAGGCUUCGGUGGCGCGAUAGCUCCAACGUCCUCAACCUCCACUGCAUCCCACCACAUAAUGAUGCCUAAAGAGCCUUGGUUUUUUG [U9A C20U G71U A91C G107A G117A]	-6.01
GACCAAUCAGCCCUCAGAGCUCGAGAACAUCUUCGGAUGCAGAGGAGGCAGGCUUCGGUGGCGCGAUAGCGCCAACGUCCUCAACCUCCAAUGCAUCCCACCGCAUGAUGAUGCCUGAAGAGCCUUGGUUUUUUG [U9A A103G]	-3.9
